According to PMC10766783 (Life Science Alliance, 2024):
Like-named read-outs stand apart in the source and are kept apart here. Each block holds one molecule with its values, some of them ahead of it.

What was measured:
[1] = molecular target: camrelizumab; test: BLI; Octet RED96; antibodies captured on anti-human Fc AHC2 tips, PD-1 proteins as analyte at different concentrations; Octet kinetics buffer; 1:1 binding model
[2] = molecular target: cemiplimab; test: as above
[3] = molecular target: nivolumab; test: as above
[4] = molecular target: pembrolizumab; test: as above
[5] = molecular target: T1, PD-1 on Jurkat-Lucia TCR-hPD-1 cells (Homo sapiens, UniProt Q15116); test: cell-based or functional assay
[6] = molecular target: T2, recombinant PD-1 N58Q mutant (human, UniProt Q15116, N58Q); test: BLI; Octet RED96; antibodies captured on anti-human Fc AHC2 tips, PD-1 proteins as analyte at different concentrations; Octet kinetics buffer; 1:1 binding model; conditions: both partners purified
T2 construct: PD-1, human, UniProt Q15116, residues 24-167 of the extracellular portion, N58Q; source: Expi293, transiently transfected, purified (Ni Sepharose Excel)

[7] = molecular target: non-fucosylated recombinant PD-1 (PD-1 NF) (human) (UniProt Q15116); test: ELISA; plate-based ligand blocking: plates coated with 5 ug/ml PD-1, PD-1 NF or PD-1 N58Q; antibodies 1 h at room temperature, washed, then 1 ug/ml PD-L1-Fc-biotin 2 h; streptavidin-HRP
[8] = molecular target: T2, recombinant PD-1 N58Q mutant; test: as above; conditions: both partners purified
[9] = molecular target: T3, full-length PD-1 on CHO-K1 Fut8 KO cells (human, UniProt Q15116, N-glycans without core fucose (Fut8 KO host)); test: flow cytometry on cells; ligand blocking: PD-1-transfected CHO-K1 or CHO-K1 Fut8 KO cells incubated with antibodies 15 min on ice before PD-L1:SA-PE complexes; four-parameter logistic fit; conditions: one partner purified
T3 construct: PD-1, human, full length, on transfected cells; also called PD-1 expressed in CHO-K1 Fut8 KO; Fut8-deficient cells; source: CHO-K1 Fut8 KO, transfected, on cells

[10] = molecular target: T4, chimeric receptor with the extracellular and transmembrane domains of PD-1 and intracellular GFP, on CHO-K1 … (Homo sapiens, UniProt Q15116, N-glycans without core fucose (Fut8 KO host)); test: flow cytometry on cells; antibodies added to CHO-K1 or CHO-K1 Fut8 KO cells transfected with PD-1 (extracellular and transmembrane domains)-GFP, 30 min on ice; binding as percentage of PD-1 expression in GFP-positive cells; four-parameter logistic fit; conditions: one partner purified
T4 construct: PD-1, human, extracellular and transmembrane domains; differs in the host and so in the glycans; also called cell surface PD-1 (CHO-K1 Fut8 KO); source: CHO-K1 Fut8 KO, transfected, on cells

[11] = molecular target: T1, PD-1 on Jurkat-Lucia TCR-hPD-1 cells

T2 sequence (Q15116 24-167 N58Q): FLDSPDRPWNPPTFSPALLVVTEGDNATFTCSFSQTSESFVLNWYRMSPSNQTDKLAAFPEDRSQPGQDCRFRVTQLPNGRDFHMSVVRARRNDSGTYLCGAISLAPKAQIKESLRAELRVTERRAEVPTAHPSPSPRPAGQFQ
Sequence of non-fucosylated recombinant PD-1 (PD-1 NF) (human) (Q15116 24-167): as the sequence (Q15116 24-167 N58Q) above, with Q35N counted along it
T4 sequence (Q15116 whole entry, looked up, stated change not applied, the tested form may be a part): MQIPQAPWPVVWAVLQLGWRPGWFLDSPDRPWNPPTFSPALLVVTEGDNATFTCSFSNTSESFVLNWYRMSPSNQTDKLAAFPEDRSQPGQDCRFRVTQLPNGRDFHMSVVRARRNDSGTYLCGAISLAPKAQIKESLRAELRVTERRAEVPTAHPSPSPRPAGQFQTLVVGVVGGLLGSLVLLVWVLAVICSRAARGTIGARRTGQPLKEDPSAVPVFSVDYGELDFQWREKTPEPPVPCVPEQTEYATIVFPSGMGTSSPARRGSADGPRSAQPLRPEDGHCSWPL
T3 sequence (Q15116 25-288): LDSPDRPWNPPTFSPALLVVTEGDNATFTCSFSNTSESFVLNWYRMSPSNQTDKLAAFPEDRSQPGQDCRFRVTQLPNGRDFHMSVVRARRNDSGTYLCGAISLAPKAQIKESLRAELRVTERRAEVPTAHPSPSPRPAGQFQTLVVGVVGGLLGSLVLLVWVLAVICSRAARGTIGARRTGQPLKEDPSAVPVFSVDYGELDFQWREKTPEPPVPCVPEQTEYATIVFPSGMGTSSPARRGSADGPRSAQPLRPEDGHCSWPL
T1 sequence (Q15116 25-288): as above
Sequence of nivolumab (heavy, as listed by the source, chain 1 of 2): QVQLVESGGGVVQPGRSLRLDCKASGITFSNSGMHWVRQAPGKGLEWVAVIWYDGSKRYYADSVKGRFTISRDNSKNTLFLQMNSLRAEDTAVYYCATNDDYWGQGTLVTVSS
Sequence of nivolumab (light, as listed by the source, chain 2 of 2): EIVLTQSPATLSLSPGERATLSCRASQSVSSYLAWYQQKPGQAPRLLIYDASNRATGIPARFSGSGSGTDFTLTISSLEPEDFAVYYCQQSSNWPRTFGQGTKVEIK
Sequence of pembrolizumab (heavy, as listed by the source, chain 1 of 2): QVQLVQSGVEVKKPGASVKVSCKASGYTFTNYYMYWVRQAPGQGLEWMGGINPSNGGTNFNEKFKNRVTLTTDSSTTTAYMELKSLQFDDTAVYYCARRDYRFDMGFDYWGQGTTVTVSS
Sequence of pembrolizumab (light, as listed by the source, chain 2 of 2): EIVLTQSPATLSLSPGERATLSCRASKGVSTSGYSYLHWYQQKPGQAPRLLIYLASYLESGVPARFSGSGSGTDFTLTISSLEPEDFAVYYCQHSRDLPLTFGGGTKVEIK

Kd [1]: 3.41 nM
Kd [2]: 2.95 nM
Molecule: recombinant PD-1 (extracellular portion of human PD-1, residues 24-167) (from UniProt Q15116 24-167) (domain or fragment)

Kd [1]: 380 nM
Kd [2]: 87.1 nM
Kd [3]: 20.8 nM
Kd [4]: 3.67 nM
Molecule: non-fucosylated recombinant PD-1 (PD-1 NF) (from UniProt Q15116 24-167) (domain or fragment)

PD-1/PD-L1 reporter assay (Jurkat-Lucia TCR-hPD-1 with Raji-APC-hPD-L1, luciferase): blockade of PD-1:PD-L1, fold change of IC50, Jurkat cells pretreated with the fucose inhibitor against untreated [5]: 2.8 fold
Kd [6]: 449 nM
IC50 [7]: 1.5 nM
IC50 [8]: 18 nM
IC50 [9]: 5.6 nM
fold change in EC50 (CHO-K1 Fut8 KO against wild-type CHO-K1) [10]: 3 fold
B1: camrelizumab (antibody, V domains shown)
VH: EVQLVESGGGLVQPGGSLRLSCAASGFTFSSYMMSWVRQAPGKGLEWVATISGGGANTYYPDSVKGRFTISRDNAKNSLYLQMNSLRAEDTAVYYCARQLYYFDYWGQGTTVTVSS
VL: DIQMTQSPSSLSASVGDRVTITCLASQTIGTWLTWYQQKPGKAPKLLIYTATSLADGVPSRFSGSGSGTDFTLTISSLQPEDFATYYCQQVYSIPWTFGGGTKVEIK
notes: Whole therapeutic anti-human PD-1 antibody; a human IgG4 isotype was the control and anti-human IgG4 or anti-human IgG the detection reagent; The PDB entry may hold only the variable part; source: bought: Selleck Chemicals

PD-1/PD-L1 reporter assay (Jurkat-Lucia TCR-hPD-1 with Raji-APC-hPD-L1, luciferase): blockade of PD-1:PD-L1, fold change of IC50, Jurkat cells pretreated with the fucose inhibitor against untreated [11]: 2.4 fold
Kd [6]: 260 nM
IC50 [7]: 0.6 nM
IC50 [8]: 1.4 nM
IC50 [9]: 2.6 nM
fold change in EC50 (CHO-K1 Fut8 KO against wild-type CHO-K1) [10]: 1.3 fold
B2: cemiplimab (antibody, V domains shown)
VH: EVQLLESGGVLVQPGGSLRLSCAASGFTFSNFGMTWVRQAPGKGLEWVSGISGGGRDTYFADSVKGRFTISRDNSKNTLYLQMNSLKGEDTAVYYCVKWGNIYFDYWGQGTLVTVSS
VL: DIQMTQSPSSLSASVGDSITITCRASLSINTFLNWYQQKPGKAPNLLIYAASSLHGGVPSRFSGSGSGTDFTLTIRTLQPEDFATYYCQQSSNTPFTFGPGTVVDFR
notes: Whole therapeutic anti-human PD-1 antibody; The PDB entry may hold only the variable part; source: bought: Selleck Chemicals
